# T1: γc-JAK-3 interaction (Homo sapiens, UniProt P52333)
# T1 construct: endogenous in cells; host or cells: YT cells (alternatively COS-7 cells expressing γc and JAK-3)
# T1 sequence (P52333 1-1124): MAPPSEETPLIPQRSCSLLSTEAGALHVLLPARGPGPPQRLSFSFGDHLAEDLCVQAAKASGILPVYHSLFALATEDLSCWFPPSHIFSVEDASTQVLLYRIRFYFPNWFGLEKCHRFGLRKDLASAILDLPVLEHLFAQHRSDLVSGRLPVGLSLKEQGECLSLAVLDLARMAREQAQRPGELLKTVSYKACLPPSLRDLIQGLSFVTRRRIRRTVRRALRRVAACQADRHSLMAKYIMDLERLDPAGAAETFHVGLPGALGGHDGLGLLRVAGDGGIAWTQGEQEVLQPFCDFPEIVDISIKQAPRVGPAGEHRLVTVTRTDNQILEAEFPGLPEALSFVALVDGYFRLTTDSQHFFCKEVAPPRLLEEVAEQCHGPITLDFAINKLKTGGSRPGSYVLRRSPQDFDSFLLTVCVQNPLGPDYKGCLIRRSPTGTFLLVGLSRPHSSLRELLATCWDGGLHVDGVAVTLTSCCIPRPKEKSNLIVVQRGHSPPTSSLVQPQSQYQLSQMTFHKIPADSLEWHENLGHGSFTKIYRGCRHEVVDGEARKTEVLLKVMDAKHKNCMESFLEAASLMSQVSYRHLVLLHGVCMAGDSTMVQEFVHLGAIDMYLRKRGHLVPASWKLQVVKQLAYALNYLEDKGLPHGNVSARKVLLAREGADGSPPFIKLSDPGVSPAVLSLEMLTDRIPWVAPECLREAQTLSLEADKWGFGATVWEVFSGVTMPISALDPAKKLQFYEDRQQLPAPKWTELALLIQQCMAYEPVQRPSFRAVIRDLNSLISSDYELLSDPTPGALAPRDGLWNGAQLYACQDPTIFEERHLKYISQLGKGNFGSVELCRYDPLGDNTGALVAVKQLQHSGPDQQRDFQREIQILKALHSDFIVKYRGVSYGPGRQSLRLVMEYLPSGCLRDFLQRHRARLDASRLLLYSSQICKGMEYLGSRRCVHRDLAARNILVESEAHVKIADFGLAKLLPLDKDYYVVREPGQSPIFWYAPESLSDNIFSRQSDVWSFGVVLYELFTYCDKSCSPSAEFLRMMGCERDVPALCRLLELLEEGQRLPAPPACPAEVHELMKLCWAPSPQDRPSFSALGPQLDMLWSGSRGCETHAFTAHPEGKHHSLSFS
# Experiments:
# γc-JAK-3 interaction = target: T1, γc-JAK-3 interaction; assay: Assay for compounds that inhibit IL-2 receptor complex formation: γc-JAK-3 coprecipitation (Example 15); assay type: binding; settings: peptide 140 μM added to cell lysates, anti-γc immunoprecipitation, JAK-3 immunoblot
# Method: The peptide to be tested as an inhibitor corresponded to the first 19 amino acids of the γc cytoplasmic tail (sequence […]) (SEQ ID NO:7). […] The negative control peptide had the sequence […] (SEQ ID NO:10), and was synthesized so that the Tyr residue at position 5 of the peptide was phosphotyrosine. The test peptide or the negative control peptide were separately added to the cell lysates to final concentrations of 140 μM. The positive control immunoprecipitation was carried out in the absence of added peptide. Lysates were immunoprecipitated for 16 hours at 4° C. using antibodies to γc and protein A sepharose and washed six times before electrophoresis on SDS gels. The gels were immunoblotted with antisera to JAK-3 using ECL as described previously.
# JAK-3 [1] = assay: Cytokine-induced tyrosine phosphorylation of JAK-3 in YT cells (Example 10); assay type: cell-based, human; settings: 15 minutes stimulation, anti-JAK-3 IP, antiphosphotyrosine blot
# Method: (§1) YT cells were serum-starved for 3 hours and acid washed twice before stimulation and immunoprecipitation. NK 3.3 cells were grown for 2 days in 10% lymphocult (Biotest) and 15% fetal bovine serum before being washed and incubated in 2% serum. Commercial polyclonal anti-JAK-1 and JAK-2 antisera were obtained from UBI and Tyk2 polyclonal antiserum from Santa Cruz Biotechnology.
# JAK-3 [2] = assay: Cytokine-induced phosphorylation and activation of JAK-3 in PHA-activated peripheral blood lymphocytes (Example 11); assay type: cell-based, human; settings: for tyrosine phosphorylation of JAK-3: PBL, 15 minutes, Western blotting; for activation of JAK-3: in vitro kinase assays
# Method: (§2) The PBL were activated for 72 hours with PHA, then washed twice at pH 6.5, incubated for 3 hours in medium containing 0.5% human serum and resuspended in medium containing 10% fetal calf serum for one hour. Cells were then lysed and immunoprecipitated with polyclonal antibodies to JAK-1 (UBI) or JAK-3. The anti-JAK-3 antibody used in these procedures has been described by Johnston et al., in Nature 370:151 (1994). Phosphotyrosine-containing proteins were detected by immunoblotting with 4G10 (UBI). […] In one procedure, the lysate was precleared with polyclonal antibody to JAK-3.
# JAK-1 = assay: Cytokine-induced phosphorylation and activation of JAK-1 in PHA-activated peripheral blood lymphocytes (Example 11); assay type: cell-based, human; settings: for tyrosine phosphorylation of JAK-1: PBL, 15 minutes, Western blotting; for activation of JAK-1: in vitro kinase assays
# Method: as §2
# JAK-3 [3] = assay: Cytokine-induced tyrosine phosphorylation of JAK-3 in NK 3.3 cells (Example 10); assay type: cell-based, human; settings: 5 or 15 minutes stimulation
# Method: as §1
# Cellular lysates were immunoprecipitated with anti-JAK-3 and blotted with antiphosphotyrosine.
Molecule,inhibition of γc-JAK-3 coprecipitation (γc-JAK-3 interaction),tyrosine phosphorylation of JAK-3 (JAK-3 [2]),activation of JAK-3 (JAK-3 [2]),tyrosine phosphorylation of JAK-1 (JAK-1),activation of JAK-1 (JAK-1),further results
"APPCYTLKPET (n-terminal fragment) [negative control peptide, reference compound]",failed to inhibit,,,,,
ERTMPRIPTLKNLEDLVTE (n-terminal fragment) [competitor peptide],partially inhibited,,,,,inhibition of γc-JAK-3 coprecipitation (γc-JAK-3 interaction; listed as 19 amino acid long peptide spanning Leu 271): only partially inhibited; inhibition of γc-JAK-3 coprecipitation (γc-JAK-3 interaction; listed as 19 amino acid polypeptide having the sequence of SEQ ID NO:6): inhibited
GM-CSF: granulocyte macrophage colony stimulating factor,,,,,,JAK-3 tyrosine phosphorylation (JAK-3 [1]): not phosphorylated
"IL-9: cytokine, known γc user",,induced tyrosine phosphorylation,activated,induced tyrosine phosphorylation,activated,
"IL-4: cytokine that utilizes the common γ chain of the IL-2 receptor (protein, UniProt P05112 25-153, looked up) Interleukin-4: HKCDITLQEIIKTLNSLTEQKTLCTELTVTDIFAASKNTTEKETFCRAATVLRQFYSHHEKDTRCLGATAQQFHRHKQLIRFLKRLDRNLWGLAGLNSCPVKEANQSTLENFLERLKTIMREKYSKCSS",,induced tyrosine phosphorylation,activated,induced tyrosine phosphorylation,activated,JAK-3 tyrosine phosphorylation (JAK-3 [3]): tyrosine phosphorylated
"IL-7: cytokine, known γc user (protein, UniProt P13232 26-177, looked up) Interleukin-7: DCDIEGKDGKQYESVLMVSIDQLLDSMKEIGSNCLNNEFNFFKRHICDANKEGMFLFRAARKLRQFLKMNSTGDFDLHLLKVSEGTTILLNCTGQVKGRKPAALGEAQPTKSLEENKSLKEQKKLNDLCFLKRLLQEIKTCWNKILMGTKEH",,induced tyrosine phosphorylation,activated,induced tyrosine phosphorylation,activated,
